{
  "source": "patent US20180325836A1",
  "about": "“ULTRASONIC TRANSDUCERS SUITABLE FOR ULTRASONIC DRUG DELIVERY VIA A SYSTEM, WHICH IS PORTABLE AND WEARABLE BY THE PATIENT” (BKR IP Holdco LLC, priority 2015, published 2018)",
  "key": {"[1]": {"experiment": "Drug survivability after ultrasonic exposure (HPLC analysis of insulin)", "assay_type": "physicochemical", "from_the_text": "Since the transducers of this invention are designed primarily for application in a drug delivery system the Applicant deemed it necessary to test the effect of the ultrasonic signal upon an active pharmaceutical substance. High intensity and high frequency ultrasound is theorized to be capable of inducing a cavitation effect within a drug, leading to an increase in temperature and a degradation of the drug molecule. For the following experiment Insulin (Humulin Regular-supplied by the Eli Lilly Company) was subjected to ultrasound emitted from a stacked array of the transducers of this invention, set to operate at 20 k Hz frequency and at 125 mW/sq. cm intensity level, for one, eight and eleven continuous hours of exposure. The insulin was placed in a plastic pouch within a hydrophone tank containing water and stirred during ultrasonic exposure. A control sample, which was untreated, but allowed to sit in the pouch and tank for one, eight and eleven hours, was also made. Samples were sent to Celsis Laboratories for independent analysis."}, "rats": {"system": "rats", "experiment": "Ultrasonically enhanced transdermal insulin delivery in live rats, blood glucose levels", "assay_type": "in vivo, rat", "from_the_text": "A four-element transducer was fabricated using four standard cymbal element transducers in one array system (Array #1) and four stacked cymbal element transducers in another system (Array #2). Array #1, the standard array, was set to operate at 20 k Hz frequency and at 125 mW/sq. cm intensity level. Array #2, the stacked array, was set to operate at 20 k Hz frequency and at 225 mW/sq. cm intensity level.\nThe transducer's arrays were fitted with a reservoir at the bottom end, into which Humulin Regular Insulin (supplied by Eli Lilly Company) was inserted. A total of […] of insulin was added, providing 100 units of insulin for the each test.\nTwo groups of test rates were assembled. The first group (Group-1) would receive the ultrasonic transmission while the second group would receive no ultrasound. In the second group (Group-2) the transducers arrays were loaded with insulin and the insulin was allowed to pool onto the surface of the rat skin, but there was no active ultrasonic transmission.\nNext a frequency generator was employed to propagate the pulsed ultrasonic transmission, which used 100 millisecond pulses, with a pulse rate of one pulse per second, a duty cycle of 10%, for one hour.\nBoth Group-1 and Group-2 animals were tested for 120 minutes. Blood samples were taken from the animals according to standard investigative procedure every 30 minutes for the first hour and every hour after and analyzed for glucose levels and the presence of insulin. The Group-1 animals were exposed to ultrasound for 60 minutes, after which the ultrasound was terminated for the balance of the test period. Glucose levels in both groups were observed over the 120 minute period."}, "rat skin": {"system": "rat skin", "details": "rats, after ultrasonic transdermal insulin delivery with transducer array", "from_the_text": "The belly of the rats were shaved to produce a skin area as close in configuration as would be present in the human situation. The transducer arrays were placed directly onto the rat skin surface and adhered to the skin by means of an adhesive.\nA section of the skin where the transducer was placed is marked on the skin."}},
  "data": [
    {"substance": "Insulin [Humulin Regular]", "values": [
      {"measurement": "degradation of insulin or excipient solution (HPLC scan)", "setting": "[1]; control sample, no ultrasound, left in pouch and tank", "result": "no degradation"},
      {"measurement": "degradation of insulin or excipient solution (HPLC scan)", "setting": "[1]; ultrasonically treated sample, eight hours of continuous exposure, 20 k Hz, 125 mW/sq. cm", "result": "no degradation"},
      {"measurement": "change in the insulin versus untreated insulin (independent analysis)", "setting": "[1]; ultrasound from stacked array, 20 k Hz, 125 mW/sq. cm, one, eight and eleven continuous hours", "result": "no change"},
      {"measurement": "glucose level", "setting": "rats; Group-1 rats, insulin on skin with active ultrasound (20 k Hz), minute 30 and minute 60", "result": "significant reduction"},
      {"measurement": "glucose level after termination of the ultrasound", "setting": "rats; Group-1 rats, minute 60 to 120, ultrasound terminated at minute 60", "result": "rise"},
      {"measurement": "glucose level", "setting": "rats; Group-2 rats, insulin on skin, no ultrasound, minute 30 and minute 60", "result": "no lowering"},
      {"measurement": "glucose level", "setting": "rats; Group-2 rats, no ultrasound, minute 60 to 120", "result": "no decrease"},
      {"measurement": "permeation through the skin", "setting": "rats; insulin placed on the skin or delivered via transdermal patch, without ultrasound", "result": "will not permeate"},
      {"measurement": "skin damage at test area", "setting": "rat skin", "result": "no skin damage"}
    ]}
  ]
}
